Results as given in publication PMC10403546.

What was measured:
[1] = target: X16 UFO (CRF07_BC Env), uncleaved prefusion-optimized Env trimer of isolate BJOX016000.e15 (HIV-1); test: cryo-EM structure
[2] = target: X18 UFO (CRF01_AE Env), uncleaved prefusion-optimized Env trimer of isolate BJOX018000.e12 (HIV-1); test: cryo-EM structure
[3] = target: X18 UFO (CRF01_AE Env), uncleaved prefusion-optimized Env trimer of isolate BJOX018000.e12 (HIV-1); test: negative stain EM

Substance	stoichiometry N [1]	stoichiometry N [2]	percentage of intact Env trimers, 8ANC195-bound, over 18 h [3]	percentage of intact Env trimers, F6-bound, 1 h [3]	percentage of intact Env trimers, F6-bound, 7 h [3]
X16 UFO (CRF07_BC Env), uncleaved prefusion-optimized Env trimer of isolate BJOX016000.e15 (natural protein)	3				
X18 UFO (CRF01_AE Env), uncleaved prefusion-optimized Env trimer of isolate BJOX018000.e12 (natural protein)		3	90%	83%	48%
